Results on 2 sequences are retold here after PMC11867022.

The series concerns S9.6 antibody (anti-DNA-RNA hybrid) (mouse). The series can be described thus: SPR. As to conditions: single-cycle kinetics, pH 7.0, SPR: 10 mM HEPES pH 7.0, 15 mM MgCl2, 80 mM NaCl, S9.6 on CM5 chip, EMSA: 200 nM nucleic acid, 80 ug/mL S9.6, 30 min room temperature, 6% PAGE in 0.5X TBE. On the technique in general: In EMSA bound probe runs differently from free probe, usually more slowly.

As to “AAGAAAAGAGAAGAAGAGAACACCTTCTCTTCTTCTCTTTTCTTAGACCCCTATCACGATTAGCATTAA / UUAAUGCUAAUCGUGAUAGGGGU [Switch B (70% TAT)/miR-155 hybrid]”, the Kd (commonly the constant that tells how readily two partners part at equilibrium) worked out at 0.144 nM.
Under “ka 5.99e5 1/Ms, kd 1.74e-4 1/s”, “AGTGAATTCTACCAGTGCCATAGAGGAGAGGAGAGGAGGGGAGGTTTACCTCCCCTCCTCTCCTCTCCCTTTGCCTCTCCTCTCCTCCCCTCCGT / UAUGGCACUGGUAGAAUUCACU [Switch A (30% TAT)/miR-183 hybrid]” showed a dissociation constant Kd of 0.291 nM.
